Reference: patent publication US20240052042A1 (Novartis, published 2024)

T1: human Natriuretic Peptide Receptor 1 (hNPR1) (human, UniProt P16066 33-473, limits assumed)
T1 construct: pannings used NPR1-hFc; also called NPR1-hFc
T1 sequence: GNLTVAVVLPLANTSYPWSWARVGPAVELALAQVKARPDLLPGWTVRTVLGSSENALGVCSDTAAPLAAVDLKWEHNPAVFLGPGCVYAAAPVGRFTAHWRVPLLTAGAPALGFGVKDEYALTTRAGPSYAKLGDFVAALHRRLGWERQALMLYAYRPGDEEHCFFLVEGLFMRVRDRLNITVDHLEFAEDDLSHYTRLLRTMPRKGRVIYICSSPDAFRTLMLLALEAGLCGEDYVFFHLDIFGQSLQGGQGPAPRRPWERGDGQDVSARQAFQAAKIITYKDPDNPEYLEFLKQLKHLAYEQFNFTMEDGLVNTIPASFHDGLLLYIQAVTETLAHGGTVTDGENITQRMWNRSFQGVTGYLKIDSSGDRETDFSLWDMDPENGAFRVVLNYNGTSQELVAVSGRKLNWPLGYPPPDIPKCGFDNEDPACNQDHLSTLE

T2: hNPR1-ANP complex (human, UniProt P01160 124-151, limits assumed)
T2 construct: hNPR1 antigen in the presence of ANP; also called hNPR1 + 100 nM ANP
T2 sequence: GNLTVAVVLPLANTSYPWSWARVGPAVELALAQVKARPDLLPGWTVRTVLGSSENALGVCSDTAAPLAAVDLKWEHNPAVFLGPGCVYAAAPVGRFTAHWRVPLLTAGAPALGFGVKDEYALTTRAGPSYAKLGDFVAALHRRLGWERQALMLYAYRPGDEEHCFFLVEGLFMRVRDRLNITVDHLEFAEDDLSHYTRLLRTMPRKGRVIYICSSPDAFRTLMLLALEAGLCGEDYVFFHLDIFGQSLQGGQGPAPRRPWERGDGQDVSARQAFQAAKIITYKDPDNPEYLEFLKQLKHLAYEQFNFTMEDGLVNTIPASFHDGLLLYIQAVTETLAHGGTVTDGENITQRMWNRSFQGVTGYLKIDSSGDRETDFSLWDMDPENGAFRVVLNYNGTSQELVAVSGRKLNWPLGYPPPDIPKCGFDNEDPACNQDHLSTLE
T2 sequence (peptide): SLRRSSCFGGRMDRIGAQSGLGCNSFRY

T3: rat NPR1 (rNPR1) (rat, UniProt P18910 29-469, limits assumed)
T3 construct: Soluble antigen
T3 sequence: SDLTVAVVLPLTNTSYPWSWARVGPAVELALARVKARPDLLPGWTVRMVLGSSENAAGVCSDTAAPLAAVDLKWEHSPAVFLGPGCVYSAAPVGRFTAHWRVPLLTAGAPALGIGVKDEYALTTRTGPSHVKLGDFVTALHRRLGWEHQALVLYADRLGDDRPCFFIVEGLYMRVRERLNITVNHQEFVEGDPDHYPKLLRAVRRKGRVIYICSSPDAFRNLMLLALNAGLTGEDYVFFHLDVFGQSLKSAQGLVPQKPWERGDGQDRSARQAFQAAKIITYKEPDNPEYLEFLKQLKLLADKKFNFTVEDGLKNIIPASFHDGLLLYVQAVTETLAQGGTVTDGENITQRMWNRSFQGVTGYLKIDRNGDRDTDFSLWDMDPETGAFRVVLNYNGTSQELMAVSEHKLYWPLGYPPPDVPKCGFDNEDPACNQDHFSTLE

T4: rNPR1-ANP complex (rat, UniProt P01160 124-151 (human entry), limits assumed)
T4 construct: rNPR1 antigen in the presence of ANP; also called rNPR1 + 100 nM ANP
T4 sequence: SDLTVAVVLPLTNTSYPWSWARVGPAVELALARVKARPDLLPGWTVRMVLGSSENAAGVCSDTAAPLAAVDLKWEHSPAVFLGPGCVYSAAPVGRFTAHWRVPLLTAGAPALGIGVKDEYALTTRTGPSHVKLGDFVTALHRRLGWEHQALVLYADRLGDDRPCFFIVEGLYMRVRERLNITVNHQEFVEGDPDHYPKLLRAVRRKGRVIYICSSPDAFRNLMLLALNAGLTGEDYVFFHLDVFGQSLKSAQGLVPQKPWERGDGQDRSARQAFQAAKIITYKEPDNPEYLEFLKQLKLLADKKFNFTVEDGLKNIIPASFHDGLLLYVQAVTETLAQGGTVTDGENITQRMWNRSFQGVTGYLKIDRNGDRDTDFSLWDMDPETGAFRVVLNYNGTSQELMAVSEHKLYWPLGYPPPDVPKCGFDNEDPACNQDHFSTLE
T4 sequence (peptide): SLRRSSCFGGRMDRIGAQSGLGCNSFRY


Tests used:
[1] = molecular target: T1, human Natriuretic Peptide Receptor 1 …; test: SET, FabCys
hNPR1-ANP complex [2] = molecular target: T2, hNPR1-ANP complex; test: SET, FabCys
[3] = molecular target: T1, human Natriuretic Peptide Receptor 1 …; test: Octet, FabCys
hNPR1-ANP complex [4] = molecular target: T2, hNPR1-ANP complex; test: Octet, FabCys
rat NPR1 (rNPR1) = molecular target: T3, rat NPR1 (rNPR1); test: SET, FabCys
rNPR1-ANP complex = molecular target: T4, rNPR1-ANP complex; test: SET, FabCys

Binder | Kd [1] | Kd (hNPR1-ANP complex [2]) | Kd [3] | Kd (hNPR1-ANP complex [4]) | Kd (rat NPR1 (rNPR1)) | Kd (rNPR1-ANP complex)
ZZ15 (FabCys format) (Fab, V domains shown, Monovalent FabCys) VH: EVQLLESGGGLVQPGGSLRLSCAASGFTFASYAITWVRQAPGKGLEWVSTISGSGVYTYYAESVKGRFTISRDNSKNTLYLQMNSLRAEDTAVYYCARPYLGDRRSYGFDHWGQGTLVTVSS VL: QSALTQPASVSGSPGQSITISCTGTSSDVGSYNLVSWYQQHPGKAPKLMIYEGSKRPSGVSNRFSGSKSGNTASLTISGLQAEDEADYYCSSYGFHIVVVVFGGGTKLTVL | 53 pM | 74 pM | 260 pM | 190 pM | – | –
ZZ17 (FabCys format) (Fab, V domains shown, Monovalent FabCys) VH: EVQLLESGGGLVQPGGSLRLSCAASGFTFSDYAISWVRQAPGKGLEWVSSISGGGYHTQYAGSVKGRFTISRDNSKNTLYLQMNSLRAEDTAVYYCARPYLGDRRSYGFDHWGQGTLVTVSS VL: QSALTQPASVSGSPGQSITISCTGTSSDVGSYNLVSWYQQHPGKAPKLMIYEGSKRPSGVSNRFSGSKSGNTASLTISGLQAEDEADYYCSSYGFHIVVVVFGGGTKLTVL | – | – | – | – | 52000 pM | 36000 pM
ZZ16 (FabCys format) (Fab, V domains shown, Monovalent FabCys) VH: EVQLLESGGGLVQPGGSLRLSCAASGFTFGTYAMTWVRQAPGKGLEWVSSISASGYYANYAGSVKGRFTISRDNSKNTLYLQMNSLRAEDTAVYYCARPYLGDRRSYGFDHWGQGTLVTVSS VL: QSALTQPASVSGSPGQSITISCTGTSSDVGSYNLVSWYQQHPGKAPKLMIYEGSKRPSGVSNRFSGSKSGNTASLTISGLQAEDEADYYCSSYGFHIVVVVFGGGTKLTVL | 40 pM | 34 pM | 140 pM | 110 pM | 62000 pM | 51000 pM
